# B1: Escherichia coli YiaY (Probable alcohol dehydrogenase, Uniprot P37686), SEQ ID NO: 111 (Escherichia coli K-12) (protein)
# chain: MAASTFFIPSVNVIGADSLTDAMNMMADYGFTRTLIVTDNMLTKLGMAGDVQKALEERNIFSVIYDGTQPNPTTENVAAGLKLLKENNCDSVISLGGGSPHDCAKGIALVAANGGDIRDYEGVDRSAKPQLPMIAINTTAGTASEMTRFCIITDEARHIKMAIVDKHVTPLLSVNDSSLMIGMPKSLTAATGMDALTHAIEAYVSIAATPITDACALKAVTMIAENLPLAVEDGSNAKAREAMAYAQFLAGMAFNNASLGYVHAMAHQLGGFYNLPHGVCNAVLLPHVQVFNSKVAAARLRDCAAAMGVNVTGKNDAEGAEACINAIRELAKKVDIPAGLRDLNVKEEDFAVLATNALKDACGFTNPIQATHEEIVAIYRAAM
# B2: Hypocrea jecorina Gld2 (Glycerol 2-dehydrogenase (NADP(+)), Uniprot Q0GYU4), SEQ ID NO: 109 (Trichoderma reesei) (protein)
# chain: MASKTYTLNTGAKIPAVGFGTFANEGAKGETYAAVTKALDVGYRHLDCAWFYHNEDEVGDAVRDFLARRPDVKREDLFICTKVWNHLHEPEDVKWSAKNSCENLKVDYIDLFLVHWPIAAEKNSDRSVKLGPDGKYVINQALTENPEPTWRAMEELVESGLVKAIGVSNWTIPGLKKLLQIAKIKPAVNQIEIHPFLPNEELVAFCFENGILPEAYSPLGSQNQVPSTGERVRDNPTLKAVAERSGYSLAQILLAWGLKRGYVVLPKSSTPSRIESNFNIPELSDEDFEAIQQVAKGRHTRFVNMKDTFGYNVWPEEE
# B3: Gluconobacter oxydans Gld (putative oxidoreductase, Uniprot Q5FQJ0), SEQ ID NO: 5 (Gluconobacter oxydans 621H) (protein)
# chain: MASDTIRIPGIDTPLSRVALGTWAIGGWMWGGPDDDNGVRTIHAALDEGINLIDTAPVYGFGHSEEIVGRALAEKPNKAHVATKLGLHWVGEDEKNMKVFRDSRPARIRKEVEDSLRRLRVETIDLEQIHWPDDKTPIDESARELQKLHQDGKIRALGVSNFSPEQMDIFREVAPLATIQPPLNLFERTIEKDILPYAEKHNAVVLAYGALCRGLLTGKMNRDTTFPKDDLRSNDPKFQKPNFEKYLAAMDEFEKLAEKRGKSVMAFAVRWVLDQGPVIALWGARKPGQVSGVKDVFGWSLTDEEKKAVDDILARHVPNPIDPTFMAPPARD
# B4: Escherichia coli YafB (2,5-diketo-D-gluconic acid reductase B, Uniprot P30863), SEQ ID NO: 99 (Escherichia coli K-12) (protein)
# chain: MAIPAFGLGTFRLKDDVVISSVITALELGYRAIDTAQIYDNEAAVGQAIAESGVPRHELYITTKIWIENLSKDKLIPSLKESLQKLRTDYVDLTLIHWPSPNDEVSVEEFMQALLEAKKQGLTREIGISNFTIPLMEKAIAAVGAENIATNQIELSPYLQNRKVVAWAKQHGIHITSYMTLAYGKALKDEVIARIAAKHNATPAQVILAWAMGEGYSVIPSSTKRKNLESNLKAQNLQLDAEDKKAIAALDCNDRLVSPEGLAPEWD
# B5: Escherichia coli YqhD (alcohol dehydrogenase, Uniprot Q46856), wild type, SEQ ID NO: 7 (Escherichia coli K-12) (protein)
# chain: MNNFNLHTPTRILFGKGAIAGLREQIPHDARVLITYGGGSVKKTGVLDQVLDALKGMDVLEFGGIEPNPAYETLMNAVKLVREQKVTFLLAVGGGSVLDGTKFIAAAANYPENIDPWHILQTGGKEIKSAIPMGCVLTLPATGSESNAGAVISRKTTGDKQAFHSAHVQPVFAVLDPVYTYTLPPRQVANGVVDAFVHTVEQYVTKPVDAKIQDRFAEGILLTLIEDGPKALKEPENYDVRANVMWAATQALNGLIGAGVPQDWATHMLGHELTAMHGLDHAQTLAIVLPALWNEKRDTKRAKLLQYAERVWNITEGSDDERIDAAIAATRNFFEQLGVPTHLSDYGLDGSSIPALLKKLEEHGMTQLGENHDITLDVSRRIYEAAR
# B6: Bacillus subtilis YhdN (general stress protein 69, Uniprot P80874), SEQ ID NO: 3 (Bacillus subtilis subsp. subtilis str. 168) (protein)
# chain: MEYTSIADTGIEASRIGLGTWAIGGTMWGGTDEKTSIETIRAALDQGITLIDTAPAYGFGQSEEIVGKAIKEYGKRDQVILATKTALDWKNNQLFRHANRARIVEEVENSLKRLQTDYIDLYQVHWPDPLVPIEETAEVMKELYDAGKIRAIGVSNFSIEQMDTFRAVAPLHTIQPPYNLFEREMEESVLPYAKDNKITTLLYGSLCRGLLTGKMTEEYTFEGDDLRNHDPKFQKPRFKEYLSAVNQLDKLAKTRYGKSVIHLAVRWILDQPGADIALWGARKPGQLEALSEITGWTLNSEDQKDINTILENTISDPVGPEFMAPPTREEI
# B7: Klebsiella pneumoniae BudC (Diacetyl reductase [(S)-acetoin forming], Uniprot Q48436), SEQ ID NO: 113 (Klebsiella pneumoniae) (protein)
# chain: MKKVALVTGAGQGIGKAIALRLVKDGFAVAIADYNDATAKAVASEINQAGGRAMAVKVDVSDRDQVFAAVEQARKTLGGFDVIVNNAGVAPSTPIESITPEIVDKVYNINVKGVIWGIQAAVEAFKKEGHGGKIINACSQAGHVGNPELAVYSSSKFAVRGLTQTAARDLAPLGITVNGYCPGIVKTPMWAEIDRQVSEAAGKPLGYGTAEFAKRITLGRLSEPEDVAACVSYLASPDSDYMTGQSLLIDGGMVFN
# B8: Escherichia coli YahK (aldehyde reductase, Uniprot P75691), SEQ ID NO: 1 (Escherichia coli K-12) (protein)
# chain: MKIKAVGAYSAKQPLEPMDITRREPGPNDVKIEIAYCGVCHSDLHQVRSEWAGTVYPCVPGHEIVGRVVAVGDQVEKYAPGDLVGVGCIVDSCKHCEECEDGLENYCDHMTGTYNSPTPDEPGHTLGGYSQQIVVHERYVLRIRHPQEQLAAVAPLLCAGITTYSPLRHWQAGPGKKVGVVGIGGLGHMGIKLAHAMGAHVVAFTTSEAKREAAKALGADEVVNSRNADEMAAHLKSFDFILNTVAAPHNLDDFTTLLKRDGTMTLVGAPATPHKSPEVFNLIMKRRAIAGSMIGGIPETQEMLDFCAEHGIVADIEMIRADQINEAYERMLRGDVKYRFVIDNRTLTD
# B9: Dickeya zeae Adh3.2 (Group III alcohol dehydrogenase, Uniprot R4Z7U3), SEQ ID NO: 103 (Dickeya zeae) (protein)
# chain: MQNFTLHTPTKILFGEGQIAALADQIPADARILITYGGGSIKKNGVFDQVINALKGRNVVEFSGIEPNPTYETLMKAVEIVRKENIDFLLAVGGGSVADGTKFIAAAVNYKAAEDPWHILQTWGAHVESAIPLGVVLTLPATGSESNSGAVITRKSTGDKQAFMNPLVCPRFAVLDPVVTYTLPERQIANGVVDAFVHTVEQYLTYPVDAKVQDRFAEGLLLTLIEEGPRALKEQHNYNVRANVMWSATMALNGLIGAGVPQDWSTHMLGHEITAMHGLDHAQTLAIVLPAMLNERRVQKREKLLQYAERVWNLRDGSDDQRIDGAIAATRAFFEQMGVPTRLSDYQLDGSSIPALVAKLEEHGMTALGENKDITLDISKRVYEAAR
# B10: Escherichia coli YdhF (Oxidoreductase YdhF, Uniprot P76187), SEQ ID NO: 105 (Escherichia coli K-12) (protein)
# chain: MVQRITIAPQGPEFSRFVMGYWRLMDWNMSARQLVSFIEEHLDLGVTTVDHADIYGGYQCEAAFGEALKLAPHLRERMEIVSKCGIATTAREENVIGHYITDRDHIIKSAEQSLINLATDHLDLLLIHRPDPLMDADEVADAFKHLHQSGKVRHFGVSNFTPAQFALLQSRLPFTLATNQVEISPVHQPLLLDGTLDQLQQLRVRPMAWSCLGGGRLFNDDYFQPLRDELAVVAEELNAGSIEQVVYAWVLRLPSQPLPIIGSGKIERVRAAVEAETLKMTRQQWFRIRKAALGYDVP
# B11: Escherichia coli YeaE (Uncharacterized protein YeaE, Uniprot P76234), SEQ ID NO: 107 (Escherichia coli K-12) (protein)
# chain: MQQKMIQFSGDVSLPAVGQGTWYMGEDASQRKTEVAALRAGIELGLTLIDTAEMYADGGAEKVVGEALTGLREKVFLVSKVYPWNAGGQKAINACEASLRRLNTDYLDLYLLHWSGSFAFEETVAAMEKLIAQGKIRRWGVSNLDYADMQELWQLPGGNQCATNQVLYHLGSRGIEYDLLPWCQQQQMPVMAYSPLAQAGRLRNGLLKNAVVNEIAHAHNISAAQVLLAWVISHQGVMAIPKAATIAHVQQNAAVLEVELSSAELAMLDKAYPAPKGKTALDMV
# What was measured:
# Experiment in all cases: Methylglyoxal reductase kinetic parameters of purified enzyme (NAD(P)H consumption at 340 nm)
# [1] = substrate: CC(=O)C=O; format: biochemical, Escherichia coli; settings: other: substrate methylglyoxal 0.1-40 mM, pH 7.5
# Method: (§1) Except for the strain 18, the proteins were purified from the crude cell-extract by affinity on a Profinity column (BIORAD, Bio-Scale Mini Profinity exact cartridge 5 ml) according to the protocol recommended by the manufacturer. The crude extract was loaded on a 5 ml Profinity exact cartridge equilibrated with 100 mM potassium phosphate pH 7.6. The column was washed with 10 column volumes of the same buffer and incubated 30min with 100 mM potassium phosphate pH 7.6, 100 mM fluoride at room temperature. The protein was eluted from the column with 2 column volumes of 100 mM potassium phosphate pH 7.6. The tag remained tightly bound to the resin and the purified protein was released. The fractions containing the protein were pooled, concentrated and loaded on a gel filtration column (Superdex 200 10/300 GL column, GE Healthcare) equilibrated with different storage buffers (Table 3). Protein concentration was measured using the Bradford protein assay.
# (§2) Methylglyoxal reductase activity (MGR) was determined by measuring the consumption of NAD(P)H at 340 nm on a spectrophotometer at 30°C (λ340 = 6290 M^-1 cm^-1). The reaction mixture (1mL) containing assay buffer and purified enzyme was incubated for 5 min at 30°C. Then, 0.1-40 mM methylglyoxal was added to start the reaction. One unit of enzyme activity was defined as the amount of enzyme catalyzing the decrease of 1µmol of NAD(P)H per min. Kinetic parameters were determined with Sigmaplot.
# [2] = substrate: CC(=O)C=O; format: biochemical, Hypocrea jecorina; settings: other: substrate methylglyoxal 0.1-40 mM, cofactor NADPH, 10mM sodium phosphate (pH 7), 30°C
# Method: as §1
# as §2, with “One unit of enzyme activity was defined as the amount of enzyme catalyzing the decrease of 1µmol of NAD(P)H per min.” left out
# [3] = substrate: CC(=O)C=O; format: biochemical, Gluconobacter oxydans; settings: other: substrate methylglyoxal 0.1-40 mM, cofactor NADPH, 20mM Hepes (pH7.5), 30°C, pH 7.5
# Method: as §1
# as §2, with “One unit of enzyme activity was defined as the amount of enzyme catalyzing the decrease of 1µmol of NAD(P)H per min.” left out
# [4] = substrate: CC(=O)C=O; format: biochemical, Bacillus subtilis; settings: other: substrate methylglyoxal 0.1-40 mM, cofactor NADPH, 20mM Hepes (pH7.5) 0.1mM ZnSO4, 30°C, pH 7.5
# Method: as §1
# as §2, with “One unit of enzyme activity was defined as the amount of enzyme catalyzing the decrease of 1µmol of NAD(P)H per min.” left out
# [5] = substrate: CC(=O)C=O; format: biochemical, Klebsiella pneumoniae; settings: other: substrate methylglyoxal 0.1-40 mM, cofactor NADH, 50 mM Imidazole (pH7), 30°C, pH 7.0
# Method: as §1
# as §2, with “One unit of enzyme activity was defined as the amount of enzyme catalyzing the decrease of 1µmol of NAD(P)H per min.” left out
# [6] = substrate: CC(=O)C=O; format: biochemical, Dickeya zeae; settings: other: substrate methylglyoxal 0.1-40 mM, cofactor NADPH, 20mM Hepes (pH7.5), 30°C, pH 7.5
# Method: as §1
# as §2, with “One unit of enzyme activity was defined as the amount of enzyme catalyzing the decrease of 1µmol of NAD(P)H per min.” left out
# [7] = cofactor NADH, 20mM Hepes (pH7.5) 0.1mM FeSO4, 30°C
# [8] = cofactor NADPH, 20mM Hepes (pH7.5), 30°C
protein,measurement,setting,value
B1,Km,[1]; [7],2840 µM
same,kcat/Km,[1]; [7],340 M⁻¹ s⁻¹
B2,Km,[2],7700 µM
same,kcat/Km,[2],11100 M⁻¹ s⁻¹
B3,Km,[3],1100 µM
same,kcat/Km,[3],8740 M⁻¹ s⁻¹
B4,Km,[1]; [8],8200 µM
same,kcat/Km,[1]; [8],2060 M⁻¹ s⁻¹
B5,Km,"[1]; cofactor NADPH, 20mM Hepes (pH7.5) 0.1mM ZnSO4, 30°C",2090 µM
B6,Km,[4],640 µM
same,kcat/Km,[4],5920 M⁻¹ s⁻¹
B7,Km,[5],74800 µM
same,kcat/Km,[5],4200 M⁻¹ s⁻¹
B8,Km,[1]; [8],1410 µM
same,kcat/Km,[1]; [8],8300 M⁻¹ s⁻¹
B9,Km,[6],6700 µM
same,kcat/Km,[6],170 M⁻¹ s⁻¹
B10,Km,[1]; [8],21800 µM
same,kcat/Km,[1]; [8],350 M⁻¹ s⁻¹
B11,Km,[1]; [8],1590 µM
same,kcat/Km,[1]; [8],910 M⁻¹ s⁻¹

# Reference: EP3196312B1, “EFFICIENT CONVERSION OF METHYLGLYOXAL INTO HYDROXYACETONE USING NOVEL ENZYMES AND APPLI CATIONS THEREOF” (Metabolic Explorer, priority 2016, dated 2017)
